In IntAct's records for PubMed 19194460:

B1: Decapping nuclease din1 (Schizosaccharomyces pombe (strain ATCC 38366 / 972)), O13836 (parent)
chain: MLREFSFYDVPPAHVPPVSEPLEIACYSLSRDRELLLDDSKLSYYYPPPLFSDLNTGFPNRFHPPKSDPDPISIVKDVLMTKGIQMNSSFLTWRGLITKIMCAPLDPRNHWETYLVMDPTSGIIMMEERTRSETSYANQDRMCYWGYKFEAISTLPEIWDACSRDQIEQRDNQDVVPDEQYCSIVKINIGKSKLILAGEVDCIWDKKPCSAKESDVHSDDGTIEEDASNAENPNLHYVELKTSKKYPLENYGMRKKLLKYWAQSFLLGIGRIIIGFRDDNGILIEMKELFTHQIPKMLRPYFKPNDWTPNRLLVVLEHALEWIKQTVKQHPPSTEFTLSYTGGSKLVLRQII
partner: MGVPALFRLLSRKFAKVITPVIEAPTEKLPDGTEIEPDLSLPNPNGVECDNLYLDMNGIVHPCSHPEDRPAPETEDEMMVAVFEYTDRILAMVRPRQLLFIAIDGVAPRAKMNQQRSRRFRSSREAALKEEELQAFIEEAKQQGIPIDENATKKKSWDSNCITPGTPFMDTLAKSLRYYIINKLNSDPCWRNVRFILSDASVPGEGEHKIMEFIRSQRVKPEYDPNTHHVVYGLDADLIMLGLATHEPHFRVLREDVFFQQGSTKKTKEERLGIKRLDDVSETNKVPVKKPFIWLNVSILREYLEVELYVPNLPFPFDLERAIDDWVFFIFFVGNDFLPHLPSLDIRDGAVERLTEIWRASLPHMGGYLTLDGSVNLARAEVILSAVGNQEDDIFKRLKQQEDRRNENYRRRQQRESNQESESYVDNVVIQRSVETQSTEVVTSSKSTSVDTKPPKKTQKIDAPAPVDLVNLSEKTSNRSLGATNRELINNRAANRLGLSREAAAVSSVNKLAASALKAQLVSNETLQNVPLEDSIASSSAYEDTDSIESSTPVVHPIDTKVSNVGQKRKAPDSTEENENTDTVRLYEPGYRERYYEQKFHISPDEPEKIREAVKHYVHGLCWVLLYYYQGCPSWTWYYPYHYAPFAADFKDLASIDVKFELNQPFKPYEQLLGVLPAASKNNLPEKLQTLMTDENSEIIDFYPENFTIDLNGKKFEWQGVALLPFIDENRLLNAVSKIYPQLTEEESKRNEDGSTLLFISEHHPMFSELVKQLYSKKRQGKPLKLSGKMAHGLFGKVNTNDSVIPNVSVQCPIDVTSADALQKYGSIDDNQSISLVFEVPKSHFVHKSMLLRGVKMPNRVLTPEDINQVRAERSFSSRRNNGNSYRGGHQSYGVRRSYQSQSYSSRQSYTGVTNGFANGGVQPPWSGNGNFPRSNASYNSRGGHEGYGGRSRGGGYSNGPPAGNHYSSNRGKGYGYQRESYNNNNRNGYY

Variants of: B1
Settings: with xrn2_schpo dhp1, P40848

Effect of a mutation on the interaction, decreasing interaction:
W159A
W204A
R164A
